In PMC6738647, “A nanobody targeting the translocated intimin receptor inhibits the attachment of enterohemorrhagic E. coli to human colonic mucosa” (PLoS Pathogens, 2019):

T1: Tir TirM (Escherichia coli, UniProt P0DJ92)
T1 chain: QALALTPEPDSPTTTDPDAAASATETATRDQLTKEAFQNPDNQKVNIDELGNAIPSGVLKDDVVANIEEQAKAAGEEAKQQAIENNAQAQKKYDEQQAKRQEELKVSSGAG

T2: Int280 of EHEC (C-terminal receptor-binding domain of intimin), His-tagged (enterohemorrhagic E. coli (EHEC) O157:H7, UniProt P43261 655-934)
T2 construct: also called Int280_(EHEC)
T2 sequence: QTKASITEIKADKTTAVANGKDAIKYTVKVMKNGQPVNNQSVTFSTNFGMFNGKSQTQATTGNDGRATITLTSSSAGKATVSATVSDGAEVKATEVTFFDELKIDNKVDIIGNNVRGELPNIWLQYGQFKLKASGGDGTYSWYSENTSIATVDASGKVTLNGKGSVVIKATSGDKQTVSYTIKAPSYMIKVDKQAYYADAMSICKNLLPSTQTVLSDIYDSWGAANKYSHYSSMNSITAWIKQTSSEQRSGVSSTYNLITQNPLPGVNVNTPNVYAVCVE

B1: Intimin Int280 Int280 (protein)
chain: T2 sequence
B2: Biotinylated TirM of EHEC, His-tagged (domain or fragment)
chain: T1 chain
modifications: biotin (Biotinamidocaproate N-hydroxysuccinimide ester)
notes: also called biotinylated TirM_(EHEC)

Legend:
Tir TirM = target: T1, Tir TirM; experiment: SPR
[1] = target: T2, Int280 of EHEC (C-terminal …); experiment: SPR; BiaCore3000; biotinylated TirM_(EHEC) immobilised on a Streptavidin SA chip at 150 RU; Int280 as analyte at 30 ul/min in HEPES-buffer; 1:1 Langmuir model; KD from koff/kon; conditions: both partners purified

Binder	Kd (Tir TirM)	Kd [1]	koff [1]	kon [1]
B1	~40 nM			
B2		48.1 nM	0.0375 s⁻¹	785000 M⁻¹ s⁻¹
